In IntAct's records for PubMed 17053785:

B1: Partitioning defective 3 homolog (Homo sapiens), Q8TEW0 (parent)
chain: MKVTVCFGRTRVVVPCGDGHMKVFSLIQQAVTRYRKAIAKDPNYWIQVHRLEHGDGGILDLDDILCDVADDKDRLVAVFDEQDPHHGGDGTSASSTGTQSPEIFGSELGTNNVSAFQPYQATSEIEVTPSVLRANMPLHVRRSSDPALIGLSTSVSDSNFSSEEPSRKNPTRWSTTAGFLKQNTAGSPKTCDRKKDENYRSLPRDTSNWSNQFQRDNARSSLSASHPMVGKWLEKQEQDEDGTEEDNSRVEPVGHADTGLEHIPNFSLDDMVKLVEVPNDGGPLGIHVVPFSARGGRTLGLLVKRLEKGGKAEHENLFRENDCIVRINDGDLRNRRFEQAQHMFRQAMRTPIIWFHVVPAANKEQYEQLSQSEKNNYYSSRFSPDSQYIDNRSVNSAGLHTVQRAPRLNHPPEQIDSHSRLPHSAHPSGKPPSAPASAPQNVFSTTVSSGYNTKKIGKRLNIQLKKGTEGLGFSITSRDVTIGGSAPIYVKNILPRGAAIQDGRLKAGDRLIEVNGVDLVGKSQEEVVSLLRSTKMEGTVSLLVFRQEDAFHPRELNAEPSQMQIPKETKAEDEDIVLTPDGTREFLTFEVPLNDSGSAGLGVSVKGNRSKENHADLGIFVKSIINGGAASKDGRLRVNDQLIAVNGESLLGKTNQDAMETLRRSMSTEGNKRGMIQLIVARRISKCNELKSPGSPPGPELPIETALDDRERRISHSLYSGIEGLDESPSRNAALSRIMGESGKYQLSPTVNMPQDDTVIIEDDRLPVLPPHLSDQSSSSSHDDVGFVTADAGTWAKAAISDSADCSLSPDVDPVLAFQREGFGRQSMSEKRTKQFSDASQLDFVKTRKSKSMDLGIADETKLNTVDDQKAGSPSRDVGPSLGLKKSSSLESLQTAVAEVTLNGDIPFHRPRPRIIRGRGCNESFRAAIDKSYDKPAVDDDDEGMETLEEDTEESSRSGRESVSTASDQPSHSLERQMNGNQEKGDKTDRKKDKTGKEKKKDRDKEKDKMKAKKGMLKGLGDMFRFGKHRKDDKIEKTGKIKIQESFTSEEERIRMKQEQERIQAKTREFRERQARERDYAEIQDFHRTFGCDDELMYGGVSSYEGSMALNARPQSPREGHMMDALYAQVKKPRNSKPSPVDSNRSTPSNHDRIQRLRQEFQQAKQDEDVEDRRRTYSFEQPWPNARPATQSGRHSVSVEVQMQRQRQEERESSQQAQRQYSSLPRQSRKNASSVSQDSWEQNYSPGEGFQSAKENPRYSSYQGSRNGYLGGHGFNARVMLETQELLRQEQRRKEQQMKKQPPSEGPSNYDSYKKVQDPSYAPPKGPFRQDVPPSPSQVARLNRLQTPEKGRPFYS

Variants of: B1
Details: with csk_human CSK

Variant | effect of a mutation on the interaction
Y1127F | disrupting interaction
